Values belong to the substance of their own block, whether it stands above or below them.
Columns and labels:
[1] = biological target: HA-tagged RCAN1-3KR mutant (human); assay: co-IP; HEK293 cells co-transfected with Flag-calcineurin and HA-tagged wild-type RCAN1 or RCAN1-3KR; IP with HA antibody, blot with Flag antibody
[2] = biological target: Flag-calcineurin (UniProt Q08209)
[3] = biological target: HA-tagged wild-type calcineurin A (UniProt Q08209); assay: co-IP; HEK293 cells co-transfected with HA-calcineurin and Myc-RCAN1, without or with T7-NEDD8, NEDD8-ΔGG, or after NEDD8 or control siRNA (60 nM); lysis in 1% NP40 buffer; IP with HA antibody, blot with Myc antibody

Myc-RCAN1, sequence (P53805 whole entry): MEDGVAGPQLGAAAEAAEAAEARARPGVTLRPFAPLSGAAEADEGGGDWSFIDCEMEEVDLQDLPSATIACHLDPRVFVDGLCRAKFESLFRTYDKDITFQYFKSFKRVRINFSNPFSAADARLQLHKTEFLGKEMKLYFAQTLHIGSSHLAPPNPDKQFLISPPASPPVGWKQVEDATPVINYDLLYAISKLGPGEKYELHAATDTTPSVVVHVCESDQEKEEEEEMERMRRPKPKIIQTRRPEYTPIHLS

reduction of binding against wild-type RCAN1 [1]: 40%
Substance: Flag-calcineurin (from UniProt Q08209 1-521) (enzyme)

NFAT-luciferase reporter activity in HEK293 cells treated with ionomycin, inhibition against reporter alone [2]: > 60%
Substance: HA-tagged human wild-type RCAN1 (RCAN1-1S) (natural protein)

increase of binding with co-expressed wild-type NEDD8, against no NEDD8 [3]: 30%
Substance: Myc-RCAN1 (natural protein)
